Laboratory results from patent US7915393B2 (Corixa Corporation, priority 2001, dated 2011).

System: WT1-specific CTL targets (DC transduced with WT1 or pulsed with WT1 peptides)
Assay: CTL by chromium release after WT1 DNA or adenovirus/alphavirus immunization
Format: in vivo, C57/BI6 mice; HLA-A2/Kb transgenic mice
Conditions: C57/BI6 mice, 3 x 100 μg, 25:1 E:T ratio
Description: Mice were sacrificed 2-3 weeks after the final immunization and CTL were evaluated by standard Chromium release assay.
Mice were sacrificed 2-3 weeks after the final immunization and CTL were evaluated by standard Chromium release assay. […] Thus, this immunization strategy also effectively elicits WT1-specific CTL in vivo.

B1: WT1 DNA: naked DNA encoding the splice variant of WT1, SEQ ID NO:381 (nucleic acid)
DNA: ATGGGCTCCGACGTTCGTGACCTGAACGCACTGCTGCCGGCAGTTCCGTCCCTGGGTGGTGGTGGTGGTTGCGCACTGCCGGTTAGCGGTGCAGCACAGTGGGCTCCGGTTCTGGACTTCGCACCGCCGGGTGCATCCGCATACGGTTCCCTGGGTGGTCCGGCACCGCCGCCGGCACCGCCGCCGCCGCCGCCGCCGCCGCCGCACTCCTTCATCAAACAGGAACCGAGCTGGGGTGGTGCAGAACCGCACGAAGAACAGTGCCTGAGCGCATTCACCGTTCACTTCTCCGGCCAGTTCACTGGCACAGCCGGAGCCTGTCGCTACGGGCCCTTCGGTCCTCCTCCGCCCAGCCAGGCGTCATCCGGCCAGGCCAGGATGTTTCCTAACGCGCCCTACCTGCCCAGCTGCCTCGAGAGCCAGCCCGCTATTCGCAATCAGGGTTACAGCACGGTCACCTTCGACGGGACGCCCAGCTACGGTCACACGCCCTCGCACCATGCGGCGCAGTTCCCCAACCACTCATTCAAGCATGAGGATCCCATGGGCCAGCAGGGCTCGCTGGGTGAGCAGCAGTACTCGGTGCCGCCCCCGGTCTATGGCTGCCACACCCCCACCGACAGCTGCACCGGCAGCCAGGCTTTGCTGCTGAGGACGCCCTACAGCAGTGACAATTTATACCAAATGACATCCCAGCTTGAATGCATGACCTGGAATCAGATGAACTTAGGAGCCACCTTAAAGGGCCACAGCACAGGGTACGAGAGCGATAACCACACAACGCCCATCCTCTGCGGAGCCCAATACAGAATACACACGCACGGTGTCTTCAGAGGCATTCAGGATGTGCGACGTGTGCCTGGAGTAGCCCCGACTCTTGTACGGTCGGCATCTGAGACCAGTGAGAAACGCCCCTTCATGTGTGCTTACCCAGGCTGCAATAAGAGATATTTTAAGCTGTCCCACTTACAGATGCACAGCAGGAAGCACACTGGTGAGAAACCATACCAGTGTGACTTCAAGGACTGTGAACGAAGGTTTTTTCGTTCAGACCAGCTCAAAAGACACCAAAGGAGACATACAGGTGTGAAACCATTCCAGTGTAAAACTTGTCAGCGAAAGTTCTCCCGGTCCGACCACCTGAAGACCCACACCAGGACTCATACAGGTGAAAAGCCCTTCAGCTGTCGGTGGCCAAGTTGTCAGAAAAAGTTTGCCCGGTCAGATGAATTAGTCCGCCATCACAACATGCATCAGAGAAACATGACCAAACTCCAGCTGGCGCTTTGAG
lysis (WT1-specific cytotoxic T cell response): 40%
